Data published in article PMC3317874, “Palmitoylation and membrane cholesterol stabilize μ-opioid receptor homodimerization and G protein coupling” (BMC Cell Biology, 2012).
Substitutions are numbered along the chain they refer to. Names and notes keep the numbering of the source.

T1: YFP-fused wild-type μ-opioid receptor (OPRM1) (rat), P33535
T1 chain: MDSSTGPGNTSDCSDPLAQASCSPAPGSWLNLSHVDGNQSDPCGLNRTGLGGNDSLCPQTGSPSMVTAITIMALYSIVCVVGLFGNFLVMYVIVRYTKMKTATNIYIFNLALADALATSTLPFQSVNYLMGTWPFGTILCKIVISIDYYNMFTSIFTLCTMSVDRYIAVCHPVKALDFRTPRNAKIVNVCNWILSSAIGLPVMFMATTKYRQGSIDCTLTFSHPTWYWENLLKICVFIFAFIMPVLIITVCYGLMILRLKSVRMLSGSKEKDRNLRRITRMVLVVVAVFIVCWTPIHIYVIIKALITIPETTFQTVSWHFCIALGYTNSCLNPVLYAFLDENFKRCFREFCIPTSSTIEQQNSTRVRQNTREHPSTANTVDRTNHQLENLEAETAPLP

B1: CFP-fused wild-type μ-opioid receptor (OPRM1), P33535 1-398 (receptor)
chain: T1 chain
modifications: here or on the partner: palmitoylated at C3.55(170); palmitoylated at C3.55(170)
B2: CFP-fused wild-type μ-opioid receptor (OPRM1) (receptor, rat, UniProt P33535 1-398, looked up)
chain: T1 chain
modifications: palmitoylated at C3.55(170)
notes: μ-opioid receptor (OPRM1), wild type; also called CFPOPRM1; source: HEK cells (also HEKOPRM1 and HEKC170A cells), transiently transfected, in living or fixed cells; not shown: CFP, C-terminal, kept
B3: CFP-fused C170A mutant of μ-opioid receptor (OPRM1) (receptor, rat, UniProt P33535 1-398, looked up)
chain: T1 chain with C170A
notes: μ-opioid receptor (OPRM1) with C3.55(170) mutated to alanine; also called CFPC170A; source: HEK cells (also HEKOPRM1 and HEKC170A cells), transiently transfected, in cells; not shown: CFP, C-terminal, kept

Key:
Assay in all cases: FRET or BRET; CFP and YFP constructs transiently transfected into HEK cells; normalized net FRET analysed on the cell membrane; also after 12 h of 0.5 μM simvastatin, simvastatin with 20 ng/ml cholesterol, or 50 μM 2-BP
[1] = target: T1, YFP-fused wild-type μ-opioid receptor …; conditions: remark: other sources report otherwise
[2] = target: T2, YFP-fused C170A mutant of μ-opioid receptor (OPRM1) (rat, UniProt P33535 1-398, C170A); conditions: partners not purified
T2 construct: μ-opioid receptor (OPRM1) with C3.55(170) mutated to alanine; also called YFPC170A; source: HEK cells, transiently transfected, in cells; not shown: YFP, C-terminal, kept

[3] = target: T3, YFP-fused wild-type μ-opioid receptor (OPRM1) (rat, UniProt P33535 1-398, palmitoylated at C3.55(170)); conditions: partners not purified
T3 construct: μ-opioid receptor (OPRM1), wild type; also called YFPOPRM1; source: HEK cells, transiently transfected, in cells; not shown: YFP, C-terminal, kept

Binder	normalized net FRET [1]	normalized net FRET [2]	normalized net FRET [3]
B1	0.49		
B2		0.3	
B3		0.07	0.27
